Molecular target: the molecule itself
Experiment: 19F NMR; 4-F-Phe labelled hXCL1(1-72) at 100 uM in 20 mM NaPO4, 50 mM NaCl, pH 6.5, 35 °C; populations of the dimer fold and the monomeric chemokine fold

B1: Human XCL1(1-72) (domain or fragment, UniProt P47992 22-93, looked up)
chain: VGSEVSDKRTCVSLTTQRLPVSRIKTYTITEGSLRAVIFITKRGLKVCADPQATWVRDVVRSMDRKSNTRNN
modifications: 4-fluorophenylalanine, presumed at F39 (single fluorine atom verified by electrospray mass spectrometry)
notes: XCL1, human, residues 1-72, lacks the disordered C-terminal tail (residues 73-93); The protein exchanges between a monomeric chemokine fold and a dimeric beta-sheet fold; also called hXCL1(1-72); wildtype XCL1
- percent of the protein in the dimer fold: 77%

Reference: article doi:10.64898/2025.12.30.697132, “Explaining how mutations affect AlphaFold predictions” (bioRxiv, 2025)
